From US20260116920A1 (PEPTIDREAM, published 2026)
Starred links: 1 amine or outer side, 2 acyl side, 3 side chain; linkers in the order of their positions; H or OH if unused. Positions of bridges follow the written chain, without caps; N, C: chain ends. Non-standard residues stand in square brackets, D forms with d. Primed or numbered codes have the meaning given here. No end group written: not given here. *: point of attachment. E(PEG8Me) = (S)-30-amino-27-oxo-2,5,8,11,14,17,20,23-octaoxa-26-azahentriacontane-31-oic acid, COCCOCCOCCOCCOCCOCCOCCOCCNC(=O)CC[C@H](N[*:1])C(=O)[*:2]; Phe(4-OMe)(3) = (S)-2-amino-3-(4-methoxyphenyl)propanoic acid (source code F4OMe), COc1ccc(C[C@H](N[*:1])C(=O)[*:2])cc1; F4aao = (S)-2-amino-3-(4-(carboxymethoxy)phenyl)propanoic acid, O=C([C@H](Cc1ccc(OCC(=O)[*:3])cc1)N[*:1])[*:2]; Phe(4-OMe) = F4OMe = (S)-2-amino-3-(4-methoxyphenyl)propanoic acid, COc1ccc(C[C@H](N[*:1])C(=O)[*:2])cc1; Trp(1-CH2CO) = O=C([C@H](Cc1cn(CC(=O)[*:3])c2ccccc12)N[*:1])[*:2]; Phe(3-COOH) = N[C@@H](Cc1cccc(C(=O)O)c1)C(=O)O; NH(CH2CH2O)8Me = COCCOCCOCCOCCOCCOCCOCCOCCN*; NMePhe(3-Cl) = CN[C@@H](Cc1cccc(Cl)c1)C(=O)O; 3Pal(6-NH2) = Nc1ccc(C[C@H](N)C(=O)O)cn1; NMeY = CN[C@@H](Cc1ccc(O)cc1)C(=O)O; NMeF = CN[C@@H](Cc1ccccc1)C(=O)O; 3Pal = N[C@@H](Cc1cccnc1)C(=O)O; 4Pal = N[C@@H](Cc1ccncc1)C(=O)O

target: T1, human transferrin receptor (hTfR) (human, UniProt P02786 89-760); assay: SPR; B = KD 1-100 nM
T1 construct: used as 0.5 uM hTfR dimer solution, immobilised on an NTA sensor chip (Ni capture plus EDC/NHS coupling); also called human TfR; TfR1
T1 sequence (P02786 89-760 limits assumed): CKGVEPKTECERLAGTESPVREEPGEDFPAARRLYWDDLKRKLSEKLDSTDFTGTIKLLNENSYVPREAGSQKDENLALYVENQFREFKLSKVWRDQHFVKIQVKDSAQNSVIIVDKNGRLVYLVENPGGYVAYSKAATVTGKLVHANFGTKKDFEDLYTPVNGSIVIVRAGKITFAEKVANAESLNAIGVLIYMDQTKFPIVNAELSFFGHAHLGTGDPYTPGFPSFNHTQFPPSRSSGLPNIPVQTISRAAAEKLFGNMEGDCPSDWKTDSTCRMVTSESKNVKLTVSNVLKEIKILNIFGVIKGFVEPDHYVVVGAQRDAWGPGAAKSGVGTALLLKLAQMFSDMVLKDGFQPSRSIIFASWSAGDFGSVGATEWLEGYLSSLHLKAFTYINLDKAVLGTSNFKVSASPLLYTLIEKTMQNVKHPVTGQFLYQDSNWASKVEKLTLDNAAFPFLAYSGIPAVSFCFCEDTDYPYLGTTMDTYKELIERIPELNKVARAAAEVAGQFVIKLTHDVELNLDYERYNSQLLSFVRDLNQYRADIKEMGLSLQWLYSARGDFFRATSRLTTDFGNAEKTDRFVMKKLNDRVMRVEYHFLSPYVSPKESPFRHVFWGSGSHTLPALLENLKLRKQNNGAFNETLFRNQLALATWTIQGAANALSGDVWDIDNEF
Procedure, shortened: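 Recombinant hTfR dimer immobilised on Ni-NTA chip with EDC/NHS coupling; running buffer 10 mM HEPES pH 8.0, 150 mM NaCl, 0.05% Tween 20, 0.1% BSA, 1.0% DMSO. Peptides injected at 5–100 nM in single-cycle kinetics; KD from least-squares sensorgram fitting.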

Row | Binder | KD [nM]
1 | Ac-AV[NMePhe(3-Cl)]V[Trp(1-CH2CO)]NY[F4aao]IIRR[4Pal][NMeY]C (thioether (positions not given here); not fully specified (C-terminus, bridges)) [894_0343] | 1 to 100
2 | Ac-AV[NMePhe(3-Cl)]V[Trp(1-CH2CO)]NY[F4aao]IIRE(NH(CH2CH2O)8Me)[4Pal][NMeY]C (thioether (positions not given here); not fully specified (C-terminus, bridges)) [894_0350] | 1 to 100
3 | {CH2CO}-AV[NMePhe(3-Cl)]VWN[3Pal(6-NH2)][F4aao]IIRR[Phe(3-COOH)][NMeY]C (thioether N-15; not fully specified (C-terminus)) [894_0368] | 1 to 100
4 | {CH2CO}-AV[NMePhe(3-Cl)]VWNY[3Pal]IIRE(NH(CH2CH2O)8Me)[4Pal][NMeY]C-NH2 (thioether N-15; also: linker PEG4c) [894_0371] | 1 to 100
5 | {CH2CO}-AV[NMePhe(3-Cl)]V[Trp(1-CH2CO)]NY[3Pal]IIRE(NH(CH2CH2O)8Me)[4Pal][NMeY]C-NH2 (thioether N-15; also: linker PEG4c) [894_0351] | 1 to 100
6 | Ac-AV[NMePhe(3-Cl)]V[Trp(1-CH2CO)]NY[Phe(4-OMe)(3)]IIR[E(PEG8Me)][4Pal][NMeY]C (thioether (positions not given here); not fully specified (C-terminus, bridges)) [894_0345] | 1 to 100
7 | Ac-AV[NMePhe(3-Cl)]V[Trp(1-CH2CO)]N[3Pal(6-NH2)][F4aao]IIRR[4Pal][NMeY]C (thioether (positions not given here); not fully specified (C-terminus, bridges)) [894_0348] | 1 to 100
8 | {CH2CO}-AV[NMePhe(3-Cl)]VWN[3Pal(6-NH2)][F4aao]IIRR[4Pal][NMeY]C-NH2 (thioether N-15; also: linker PEG4c) [894_0369] | 1 to 100
9 | {CH2CO}-AV[NMePhe(3-Cl)]VWNY[3Pal]IIRE(NH(CH2CH2O)8Me)[Phe(3-COOH)][NMeY]C-NH2 (thioether N-15; also: linker PEG4c) [894_0370] | 1 to 100
10 | {CH2CO}-AV[NMePhe(3-Cl)]VWNY[F4aao]IIRE(NH(CH2CH2O)8Me)F[NMeY]C (thioether N-15; not fully specified (C-terminus)) [894_0362] | 1 to 100
11 | {CH2CO}-AV[NMePhe(3-Cl)]VWNY[Phe(4-OMe)]IIRE(NH(CH2CH2O)8Me)[Phe(3-COOH)][NMeY]C-NH2 (thioether N-15; also: linker PEG4c) [894_0365] | 1 to 100
12 | Ac-AV[NMePhe(3-Cl)]V[Trp(1-CH2CO)]N[3Pal(6-NH2)][3Pal]IIRR[Phe(3-COOH)][NMeY]C (thioether (positions not given here); not fully specified (C-terminus, bridges)) [894_0347] | 1 to 100
13 | {CH2CO}-AV[NMePhe(3-Cl)]V[Trp(1-CH2CO)]NY[3Pal]IIRE(NH(CH2CH2O)8Me)[Phe(3-COOH)][NMeY]C-NH2 (thioether N-15; also: linker PEG4c) [894_0352] | 1 to 100
14 | Ac-AV[NMePhe(3-Cl)]V[Trp(1-CH2CO)]NY[Phe(4-OMe)(3)]IIR[E(PEG8Me)][Phe(3-COOH)][NMeY]C (thioether (positions not given here); not fully specified (C-terminus, bridges)) [894_0344] | 1 to 100
15 | Ac-AV[NMePhe(3-Cl)]V[Trp(1-CH2CO)]N[3Pal(6-NH2)][F4aao]IIRR[Phe(3-COOH)][NMeY]C (thioether (positions not given here); not fully specified (C-terminus, bridges)) [894_0349] | 1 to 100

Further lines, results first:

Row | KD [nM] | Binder
16 | 1 to 100 | {CH2CO}-AV[NMeF]VWNYYIIRRY[NMeY]C-NH2 (thioether N-15; also: linker G-de-de-de-S-S-C(AcNMe), place not given here) [894_0393]
17 | 1 to 100 | {CH2CO}-AV[NMePhe(3-Cl)]VWNY[F4aao]IIR[E(PEG8Me)][Phe(3-COOH)]YC-NH2 (thioether N-15; not fully specified (residue 14); also: linker PEG4c, place not given here) [894_0372]
18 | 1 to 100 | {CH2CO}-AV[NMePhe(3-Cl)]VWN[3Pal(6-NH2)][3Pal]IIR[E(PEG8Me)][Phe(3-COOH)]YC-NH2 (thioether N-15; not fully specified (residue 14); also: linker PEG4c, place not given here) [894_0374]
19 | 1 to 100 | {CH2CO}-AV[NMePhe(3-Cl)]VWNY[F4aao]IIR[E(PEG8Me)][4Pal]YC-NH2 (thioether N-15; not fully specified (residue 14); also: linker PEG4c, place not given here) [894_0373]
20 | 1 to 100 | {CH2CO}-AV[NMeF]VWNYYIIRRY[NMeY]C-NH2 (thioether N-15; also: linker G-de-de-de-de-de-C(AcNMe), place not given here) [894_0394]
21 | 1 to 100 | {CH2CO}-AV[NMePhe(3-Cl)]VWN[3Pal(6-NH2)][F4aao]IIR[E(PEG8Me)][Phe(3-COOH)][NMeY]C-NH2 (thioether N-15; also: linker PEG4c, place not given here) [894_0376]
22 | 1 to 100 | {CH2CO}-AV[NMePhe(3-Cl)]VWN[3Pal(6-NH2)][F4aao]IIR[E(PEG8Me)][4Pal][NMeY]C-NH2 (thioether N-15; also: linker PEG4c, place not given here) [894_0377]
23 | 1 to 100 | {CH2CO}-AV[NMePhe(3-Cl)]VWN[3Pal(6-NH2)][3Pal]IIR[E(PEG8Me)][4Pal]YC-NH2 (thioether N-15; not fully specified (residue 14); also: linker PEG4c, place not given here) [894_0375]
